The target of assay [1] is T1, human CCL7 (MCP3) - wild type (wt) (human, UniProt P80098 24-99).
T1 construct: Bought from R&D Systems for the homolog assay
Kind of assay: SPR (Biacore T200), 25 °C, ACES pH 7.4; antibody captured on anti-human IgG (Fc), chemokine injected at 5 nM and 20 nM. On the procedure:
(§1) Biacore assay method: The binding of anti-CCL2 antibodies to the CCL homologs e.g. CCL2 (MCP-1), CCL8 (MCP-2), CCL7 (MCP-3), and CCL13 (MCP-4) were assessed at 25° C. using Biacore T200 instrument (GE Healthcare). Mouse anti-human IgG (Fc) (GE Healthcare) was immobilized on each flow cells of a CM4 sensor chip using amine coupling kit (GE Healthcare) according to the recommended settings by the manufacturer. Antibodies and analytes were diluted into ACES pH 7.4 buffer (20 mM ACES, 150 mM NaCl, 1 mg/ml BSA, 0.05% Tween 20, 0.005% NaN3). Antibodies were captured onto the anti-Fc sensor surfaces, then recombinant human CCL homologs proteins was injected over the flow cell at 5 nM and 20 nM. […] Sensor surface was regenerated each cycle with 3M MgCl2. Binding sensorgram was processed using Biacore T200 Evaluation software, version 2.0 (GE Healthcare).

Assay [2] concerns the target T2, human CCL2 (MCP1) - P8A variant (human, UniProt P13500 24-99).
T2 construct: In-house point mutant that cannot dimerise; also called monomeric human CCL2; monomeric CCL2
Kind of assay: SPR T200, 37 C, antibody captured, 1:1 model. The protocol:
(§2) Antibody clone supernatants were diluted 1:2 in system buffer and were captured for 1 min at 5 μl/min. […] Analyte kinetics were performed at 30 μl/min. As analyte in solution wt human CCL2 or monomeric CCL2 P8A variant CCL2 were used. Analytes were injected at 90 nM highest concentration. The analyte contact time was 3 min and the dissociation time was 10 min. The Biaevaluation software V.3.0 was used according to the instructions of the manufacturer GEHC. A 1:1 binding model with RMAX local was applied to apparently estimate kinetic rates.

Assay [3] has as its target T3, human CCL2 (MCP1) - wild type (wt) (human, UniProt P13500 24-99).
T3 construct: Made in-house or bought (R&D Systems 279-MC), depending on the assay; can form dimers; also called wt human CCL2; WT human CCL2
Kind of assay: SPR T200, 37 C, antibody captured, 1:1 model. On the procedure:
as §2

Assay [4] concerns the target T3, human CCL2 (MCP1) - wild type (wt). Kind of assay: cell-based or functional assay.
Assay [5] deals with T4, human CCL8 (MCP2) - wild type (wt) (human, UniProt P80075 24-99).
T4 construct: also called huCCL8
T4 sequence: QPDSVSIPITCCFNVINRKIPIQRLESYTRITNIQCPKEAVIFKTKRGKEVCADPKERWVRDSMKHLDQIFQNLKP
Kind of assay: SPR (Biacore T200), 25 °C, ACES pH 7.4; antibody captured on anti-human IgG (Fc), chemokine injected at 5 nM and 20 nM. The protocol: as §1

Assay [6] addresses T3, human CCL2 (MCP1) - wild type (wt). Kind of assay: SPR T200, 25 C, anti-human Fc capture, 1:1 model, pH 6.3.
The target is the same in assay [7]. In words: SPR T200, 25 C, anti-human Fc capture, 1:1 model, pH 7.1. The protocol: (§3) An antibody capture system was established. 13000 MAb<h-Fc-pan>M-R10Z8E9-IgG (Roche) were immobilized at 25° C. at 18 μg/ml in 10 mM sodium acetate buffer pH 5.0, by EDC/NHS coupling as described by the manufacturer. The capture system was regenerated by an injection at 20 μl/min with HBS buffer (100 mM HEPES pH 7.4, 1.5 M NaCl, 0.05% (w/v) Tween 20), followed by a 1 min 15 see injection with 10 mM NaOH and two 10 mM glycine buffer pH 2.5 injections for 1 min. Antibodies were captured were injected for 30 see at 10 μl/min at 80 nM concentration diluted in the respective system buffer. […] The analyte contact time was 3 min and the dissociation time was 10 min. Analyte kinetics were performed at 50 μl/min.
(§4) The Biaevaluation software V.3.0 was used according to the instructions of the manufacturer GEHC. A 1:1 binding model with RMAX local was applied to determine kinetic rates.

The target is the same in assay [8]. In words: SPR T200, 25 C, anti-human Fc capture, 1:1 model, pH 6.7.
Assay [9] has the same target. In words: SPR T200, 25 C, anti-human Fc capture, 1:1 model, pH 5.9. On the procedure:
as §3, §4

Assay [10] shares this target. In words: SPR T200, 25 C, anti-human Fc capture, 1:1 model, pH 8.3. On the procedure:
as §3, §4

For assay [11] the target is unchanged. In words: SPR T200, 25 C, anti-human Fc capture, 1:1 model, pH 5.5. On the procedure:
as §3, §4

Assay [12] has the same target. In words: SPR T200, 25 C, anti-human Fc capture, 1:1 model, pH 7.4. On the procedure:
as §3, §4

Assay [13] shares this target. Kind of assay: SPR T200, 25 C, anti-human Fc capture, 1:1 model, pH 7.9. The protocol: as §3, §4
Assay [14] has the same target. In words: SPR, C1 chip, anti-human Fc capture, 25 C, pH 7.4, Langmuir 1:1. The protocol:
The sample and system buffer was PBS-T (10 mM phosphate buffered saline including 0.05% Tween20) pH 7.4. The flow cell was set to 25° C.—and the sample block set to 12° C.—and primed with running buffer twice. The bispecific antibody was captured by injecting a 2 μg/ml solution for 60 see at a flow rate of 10 μl/min. Association was measured by injection of human CCL2 (wt) in various concentrations in solution for 150 see at a flow rate of 30 μl/min starting with 30 nM in 1:10 dilutions. The dissociation phase was monitored for up to 1200 sec and triggered by switching from the sample solution to running buffer. […] Bulk refractive index differences were corrected by subtracting the response obtained from a goat anti human IgG Fc surface. Blank injections are also subtracted (=double referencing). For calculation of kinetic parameters, the Langmuir 1:1 model was used.

Assay [15] concerns the target T5, human FcγRIIb receptor on CHO-K1 cells (clone 223) (human, UniProt P31994 43-310).
T5 sequence (looked up): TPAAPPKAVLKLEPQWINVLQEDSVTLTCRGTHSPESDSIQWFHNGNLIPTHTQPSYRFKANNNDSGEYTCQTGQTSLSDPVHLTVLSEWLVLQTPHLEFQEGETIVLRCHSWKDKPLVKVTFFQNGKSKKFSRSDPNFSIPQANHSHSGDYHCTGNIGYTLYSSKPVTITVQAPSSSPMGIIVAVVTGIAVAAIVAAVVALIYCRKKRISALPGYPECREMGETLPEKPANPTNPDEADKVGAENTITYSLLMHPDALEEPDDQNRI
Kind of assay: cell-based or functional assay.

Assay [16] deals with T3, human CCL2 (MCP1) - wild type (wt). Kind of assay: cell-based or functional assay. The source holds these as a separate data set.

B1: CNTO888 (antibody, V domains shown)
VH: QVQLVQSGAEVKKPGSSVKVSCKASGGTFSSYGISWVRQAPGQGLEWMGGIIPIFGTANYAQKFQGRVTITADESTSTAYMELSSLRSEDTAVYYCARYDGIYGELDFWGQGTLVTVSS
VL: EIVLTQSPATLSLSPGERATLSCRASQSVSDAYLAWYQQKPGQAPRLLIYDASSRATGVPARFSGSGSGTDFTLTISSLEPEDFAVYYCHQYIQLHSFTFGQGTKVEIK
notes: IgG1 wild type with kappa light chain; also called CCL2-0004; CNTO888-IgG1
Take B1: the binding result in assay [1] was “no binding (tested: 20 nM)”.

B2: 1G9 (antibody, IgG1, V domains shown)
VH: QSLEESGGDLVKPGASLTLTCKASGIDFSLYSYMCWVRQAPGKGLEWIACVDAGASGSTYYASWAKGRFTISKTSSTTVTLQMTSLTAADTATYFCARGILYYTWPYPAGAIDAFDSWGPGTLVTVSS
VL: AYDMTQTPASVSEPVGGTVTIKCQASESISNYLSWYQQKPGQPPKLLIYKASTLASGVPSRFKGSGSGTEYTVTISGVQSDDAATYYCQQSYSSSNVFNTFGGGTEVVVK
notes: also called CCL2-0010
For the molecule B2, the Kd came out at 0.051 nM in assay [2] and 0.062 nM in [3]. Further, the “T1/2” value was found to be 218 min in assay [2] and 177 min in assay [3]. In addition, the “THP1 chemotaxis [fold change compared to IgG control]” value in [4] was determined as 0.9 fold. Besides, the binding result in assay [5] is given as “binds”; in assay [1] it was “no binding (tested: 20 nM)”.

B3: 1A5 (antibody, IgG1, V domains shown)
VH: QEQLVESGGDLVKPEGSLTLTCTASGFSFSTSYWMCWVRQAPGKGLELIACISSSIGVTYYASWAEGRFTISKTSSTTVTLQMTSLTVADTATYFCARTTDDNWNVGFNLWGPGTLVTVSS
VL: AYDMTQTPASVEVGVGGTVTIKCQASQSIGNRYLSWYQQKPGQPPKLLIYGTSTLASGVSSRFKGSGSGTQFTLTISGVESADSATYYCQQGATISYLDNAFGGGTEVVVK
notes: also called CCL2-0009
Take B3: the Kd in assay [2] was 0.046 nM; in assay [3] it was 0.024 nM. The “T1/2” value worked out at 137 min in assay [2] and 160 min in assay [3]. Moreover, in assay [4], the “THP1 chemotaxis [fold change compared to IgG control]” value came to 3.6 fold. In addition, the binding result in assay [5] is listed as “no binding (tested: 20 nM)”; in [1], “binds”.

B4: ABN912 (antibody, IgG1, V domains shown)
VH: EVQLVQSGGGLVQPGGSLRLSCAASGFTFSHYWMSWVRQAPGKGLEWLANIEQDGSEKYYVDSVKGRFTISRDNAKNSLYLQMNSLRAEDTAVYFCARDLEGLHGDGYFDLWGRGTLVTVSS
VL: AIQLTQSPSSLSASVGDRVILTCRASQGVSSALAWYQQKPGKAPKLLIYDASSLESGVPSRFSGSGSGPDFTLTISSLQPEDFATYFCQQFNSYPLTFGGGTKVEIK
notes: IgG1 with kappa light chain; also called AB912; CCL2-0003
As to B4, the Kd worked out at 1 nM in [6]; 0.02 nM in assay [7]; 0.046 nM in assay [2]; 0.036 nM in assay [3]; 0.2 nM in assay [8]; 13 nM in assay [9]. The Kd in assay [10] worked out at 0.004 nM; in assay [11] it was 2000 nM; in assay [12], 0.01 nM; in assay [13], 0.004 nM. Besides, the “t 1/2-diss.” value is 3 min in assay [6]; 20 min in assay [7]; 8 min in assay [8]; 1 min in assay [9]; 35 min in assay [10]; 0.03 min in [11]. Besides, the “t 1/2-diss.” value in assay [12] was 33 min; in assay [13], 25 min. Besides, the “T1/2” value was found to be 25 min in assay [2] and 33 min in assay [3]. Also, in assay [4], the “THP1 chemotaxis [fold change compared to IgG control]” value came out at 6.5 fold. Also, the “t 1/2*” value in assay [14] worked out at 27 min.

B5: CKLO2-GG03/GG04 (=P1AF8140) (bispecific antibody)
heavy 1: DIQMTQSPSSLSASVGDRVTITCKAFEDIYNRRAWYQQKPGKAPKLLIHGATSLEHGVPSRFSGSGSGTDYTLTISSLQPEDFATYYCQQFWSAPYTFGGGTKVEIKSSASTKGPSVFPLAPSSKSTSGGTAALGCLVKDYFPEPVTVSWNSGALTSGVHTFPAVLQSSGLYSLSSVVTVPSSSLGTQTYICNVNHKPSNTKVDKKVEPKSCDKTHTCPPCPAPEYLGGDSVFLFPPKPKDVLMISRTPEVTCVVIDVSHEDPEVKFNWYVDGVEVHNAKTKPREEQYNSTYRVVSVLPVLHRDWLNGKEYKCKVSNKALPKPIEKTISKAKGQRREPQVYTLPPCREEMTKNQVSLWCLVKGFYPSDIAVEWESNGQPENNYKTTPPVLDSDGSFFLYSKLTVDKSRWQQGNVFSCSVMHEALHAHYTRKELSLSP
heavy 2: not shown
light 1: QVQLVQSGAEVKKPGSSVKVSCKASGLTISHTYMHWVRQAPGQGLEWMGRIDPDNHNTKFDPKFQGRVTITADTSTSTAYMELSSLRSEDTAVYYCARGVFGFFEHWGQGTTVTVSSASVAAPSVFIFPPSDEQLKSGTASVVCLLNNFYPREAKVQWKVDNALQSGNSQESVTEQDSKDSTYSLSSTLTLSKADYEKHKVYACEVTHQGLSSPVTKSFNRGEC
light 2: EIVLTQSPATLSLSPGERATLSCRASQHVSDAYLAWYQQKPGQAPRLLIYDASDRAEGVPARFSGSGSGTDFTLTISSLEPEDFAVYYCHQYIHLHSFTFGQGTKVEIKRTVAAPSVFIFPPSDRKLKSGTASVVCLLNNFYPREAKVQWKVDNALQSGNSQESVTEQDSKDSTYSLSSTLTLSKADYEKHKVYACEVTHQGLSSPVTKSFNRGEC
With B5, the “EC50 (read off the curve) of the depletion of CCL2 from the supernatant of FcγRIIb CHO cells” value in [15] is ~1 nM. Further, the “IC50, inhibition of THP-1 migration (chemotaxis assay)” value in assay [16] worked out at 0.3 µg/mL.
